Experimental data as given in publication doi:10.1101/2020.01.08.898262 (bioRxiv, 2020).

Target: the molecule itself
Test: crystal structure

B1: Salmonella typhi outer membrane phospholipase A (OmpLA), leaderless (21Q-289F) (enzyme)
chain: QEATIKEVHDAPAVRGSIIANMLQEHDNPFTLYPYDTNYLIYTNTSDLNKEAISTYNWSENARKDEVKFQLSLAFPLWRGILGPNSVLGASYTQKSWWQLSNSKESSPFRETNYEPQLFLGFATDYRFAGWTLRDVEMGYNHDSNGRSDPTSRSWNRLYTRLMAENGNWLVEVKPWYVIGSTDDNPDITKYMGYYQLKIGYHLGEAVLSAKGQYNWNTGYGGAEVGLSYPVTKHVRLYTQVYSGYGESLIDYNFNQTRVGVGVMLNDIF
Question: Does B1 bind?
Answer: binds
